Source: paper PMC7267768, “Three kinds of treatment with Homoharringtonine, Hydroxychloroquine or shRNA and their combination against coronavirus PEDV in vitro” (Virology Journal, 2020)

Target: T1, HR1 peptide of the PEDV spike glycoprotein (optimal focused HR1 domain) (porcine epidemic diarrhea virus (PEDV))
T1 construct: Spike glycoprotein of porcine epidemic diarrhea virus (PEDV), heptad repeat 1; numbers count on: GenBank ALS35469.1; source: synthetic peptide (China Peptides)
T1 peptide: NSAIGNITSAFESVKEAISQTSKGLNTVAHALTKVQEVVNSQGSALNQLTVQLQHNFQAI
Test: SEC; HR1 and tHR2 mixed, each at 15 uM, incubated 2 h; Superdex G75, 20 mM Tris-HCl pH 8.0; mass estimated against protein standards
Settings: both partners purified

B1: truncated HR2 peptide tHR2 of the PEDV spike glycoprotein (1278-1316, 39Aa) (peptide)
peptide: LTGEIADLEQRSESLRNTTEELRSLINNINNTLVDLEWL
notes: Spike glycoprotein of porcine epidemic diarrhea virus (PEDV), truncated heptad repeat 2, residues 1278-1316 (39 residues); the predicted HR2 domain is 1263-1314; numbers count on: GenBank ALS35469.1; source: synthetic peptide (China Peptides)
  stoichiometry N: ~1 tHR2 per HR1 (3:3)
